# Numbering of substitutions follows the chain as printed.
# B1: VAB 15C8-17 (antibody, V domains shown)
# VH: QVQLVESGGGLVQPGGSLRLSCAVSGFTISDHYMSWIRQAPGKGLEWISYISSSGSKIYYADSVKGRFTISRDNAKNSLFLQMNSLRAEDTAVYYCARTRQLVGDYWGQGTLVTVSS
# VL: DIQLTQSPSFLSASVGDRVTITCWASQGISSYLAWYQQKPGKAPKLLIFAASTLQSGVPSRFSGSGSGTEFTLTISSLQPEDFATYYCQQLNSYPLTFGGGTKVEIR
# notes: Apparently tested with mouse constant region (anti-mouse IgG capture/detection)
# B2: VAB 10G8-19 (antibody, V domains shown)
# VH: QVQLVQSGAEVKKPGASVKVSCKASRYTFTSYDINWVRQATGQGLEWMGWMNPNSGNTGYAQKFQGRVTMTRNTSTSTAYMELSSLRSEDTAVYYCARVRRFFDYWGQGTLVTVSS
# VL: B1 VL with S30I, F49Y, Q55H, Q89H, N92K, L96I, G100Q, K103R, V104L, R107K
# notes: as for B1
# B3: VX 3F7-6 (antibody, V domains shown)
# VH: EVQLVESGGGLVQPGGSLRLSCAASGFTFSSFWMTWVRQAPGKGLEWVANIKQDGSEKYYVDSVKGRFTISRDNAKNSLYLQMNSLRAEDTAVYYCARDPGRTMVRGGIRYYYGMDVWGQGTTVTVSS
# VL: DIQMTQSPSSVSASVGDRVTISCRASQGVSSWLAWYQQKPGNAPKLLISAASSIQSGVPSRFSGSGSGTDFTLTISSLQPEDFATYYCQQANSFPLTFGGGTKVEIK
# notes: 395/397; 399/401 without saying which was assayed; Apparently tested with mouse constant region (anti-mouse IgG capture/detection)
# B4: VAB 10C1-5 (antibody, V domains shown)
# VH: QVQLVETGGDLVRPGGSLRLSCTASGFTLSDYYMSWIRQAPGKGLEWVSYIRRSGNTIYYADSVKGRFTISRDNAKNSLYLQMNSLRAEDTAVYYCARGGDWADVWGQGTTVTVSS
# VL: DIQMTQSPSSLSASVGDRVTITCRASQGISIYLAWFQQKPGKAPKSLIYAASSLQRGVPSKFSGSGSGTDFTLTISSLQPEDFATYYCQQYNSYPYTFGQGTKLEIK
# notes: as for B1
# B5: VAK8G11-13 (antibody, V domains shown)
# VH: QVRLVESGGGVVQPGGSLRLSCAASGFIFRSYGMHWVRQAPGRGLEWVAVISYDGSKTFYVDSVKVRFTISRDNSKNTLYLEMNSLRVDDTAVYFCVKEGRSGSWFDPWGQGTLVAVSS
# VL: DIHMTQSPSSLSASVGDRVTITCRASQAINNFLAWFQQKPGKTPKSLIFATSSLQSGVPSRFSGSGSGTDFTLTISSLQPEDFATYYCQQYNSHPWTFGQGTKVEIK
# notes: as for B1
# B6: VAK7G8-5 (antibody, V domains shown)
# VH: B5 VH with A23T
# VL: B5 VL with K107R
# notes: as for B1
# B7: VAK5H4-4 (antibody, V domains shown)
# VH: B5 VH with A23V, I28T
# VL: B5 VL with H3Q, K45N, G64A, S65G
# notes: as for B1
# Biological target: T1, monomeric hIL-4R (R&D Systems) (human, UniProt P24394 26-231)
# T1 construct: Bought (R&D Systems); also called hIL-4R monomer
# T1 sequence: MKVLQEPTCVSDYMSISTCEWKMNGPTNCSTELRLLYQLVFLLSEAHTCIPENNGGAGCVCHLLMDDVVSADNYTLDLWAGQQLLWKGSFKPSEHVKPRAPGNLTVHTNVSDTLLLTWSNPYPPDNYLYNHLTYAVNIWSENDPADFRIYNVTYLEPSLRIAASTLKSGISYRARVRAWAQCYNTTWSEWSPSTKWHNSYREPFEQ
# Experiment: SPR (BIAcore 2000); antibody captured, monomeric hIL-4R injected
# Method: (§1) Binding affinity (KD) of selected antibodies with respect to hIL-4R was determined using a real-time biosensor surface plasmon resonance assay (BIAcore™ 2000). Briefly, antibody was captured on a goat anti-mouse (GAM) IgG polyclonal antibody surface created through direct chemical coupling of the GAM IgG to a BIAcore™ chip to form a captured antibody surface. […] Binding of antigen to antibody and dissociation of the bound complex, were monitored in real time. Equilibrium dissociation constants (KD) and dissociation rate constants were ascertained by performing kinetic analysis using BIA evaluation software. BIA evaluation software was also used to calculate the half-life of antigen/antibody complex dissociation (T_{1/2}). […] The binding affinity of anti-hIL-4R antibodies to either mouse or monkey (Macaca fascicularis) IL-4R was also tested.
Binder,Kd [nM],T1/2 monomeric [h]
B1,0.82,0.25
B2,11.4,0.0333
B3,3.91,0.267
B4,4.47,0.1
B5,0.03,14
B6,0.06,8
B7,0.02,16

# Biological target: T2, mouse IL-4R (mouse, UniProt P16382 26-233, limits assumed)
# T2 sequence (looked up): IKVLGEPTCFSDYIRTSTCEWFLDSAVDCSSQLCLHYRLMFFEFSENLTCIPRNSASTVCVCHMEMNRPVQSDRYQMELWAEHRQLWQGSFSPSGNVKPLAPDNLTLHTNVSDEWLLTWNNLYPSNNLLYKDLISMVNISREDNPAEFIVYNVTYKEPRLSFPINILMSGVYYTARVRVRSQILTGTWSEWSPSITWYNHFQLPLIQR
# Experiment: binding affinity test of Example 2 (method not restated)
row,Binder,binding result
1,B1,no binding
2,B2,no binding
3,B3,no binding
4,B4,no binding
5,B5,no binding
6,B6,no binding
7,B7,no binding

# Biological target: T3, hIL-4R on cells (STAT6-transfected HEK293, TF1, TF1/A12) (human, UniProt P24394 26-825)
# T3 sequence (looked up): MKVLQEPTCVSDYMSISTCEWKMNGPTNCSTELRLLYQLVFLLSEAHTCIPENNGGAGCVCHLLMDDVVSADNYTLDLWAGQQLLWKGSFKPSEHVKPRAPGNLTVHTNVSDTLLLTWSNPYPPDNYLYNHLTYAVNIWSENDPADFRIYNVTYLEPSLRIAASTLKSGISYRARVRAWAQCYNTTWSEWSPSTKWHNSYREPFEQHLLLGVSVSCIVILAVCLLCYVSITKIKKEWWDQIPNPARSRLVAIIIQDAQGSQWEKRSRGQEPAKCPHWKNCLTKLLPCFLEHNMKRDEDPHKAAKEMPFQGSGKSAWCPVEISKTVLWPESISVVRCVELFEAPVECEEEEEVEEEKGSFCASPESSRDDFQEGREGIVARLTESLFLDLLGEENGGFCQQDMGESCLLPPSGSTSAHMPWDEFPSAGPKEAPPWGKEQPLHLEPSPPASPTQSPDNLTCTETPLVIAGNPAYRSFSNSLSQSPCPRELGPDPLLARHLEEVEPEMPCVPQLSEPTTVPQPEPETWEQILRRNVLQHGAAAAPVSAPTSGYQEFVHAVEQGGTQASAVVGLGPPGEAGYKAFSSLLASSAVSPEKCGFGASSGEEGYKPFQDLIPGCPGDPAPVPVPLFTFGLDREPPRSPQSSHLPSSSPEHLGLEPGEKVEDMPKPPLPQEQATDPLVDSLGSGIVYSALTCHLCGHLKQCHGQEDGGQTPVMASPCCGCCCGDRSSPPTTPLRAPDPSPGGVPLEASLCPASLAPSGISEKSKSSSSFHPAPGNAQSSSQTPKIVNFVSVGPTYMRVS
# Experiment: cell-based or functional assay
Binder,"STAT6 Bioassay IC50 (HEK293 STAT6 luciferase, 40 pM hIL-13) [nM]","TF1 Bioassay IC50 (proliferation, 150 pM hIL-13) [nM]"
B1,0.2,2.6
B2,0.97,
B3,> 10,
B4,1,
B5,0.06,0.42
B6,0.04,0.36
B7,0.084,0.24

# Biological target: T4, dimeric hIL-4R-hFc (human, UniProt P24394 26-232)
# T4 construct: also called hIL-4R-Fc; not shown: human Fc (hFc)
# T4 sequence: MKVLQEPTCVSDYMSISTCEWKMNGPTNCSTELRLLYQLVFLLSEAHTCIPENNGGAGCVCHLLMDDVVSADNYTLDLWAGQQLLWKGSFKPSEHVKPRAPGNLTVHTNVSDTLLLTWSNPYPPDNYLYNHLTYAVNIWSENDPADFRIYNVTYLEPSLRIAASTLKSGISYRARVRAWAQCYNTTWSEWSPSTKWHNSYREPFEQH
# Experiment: SPR (BIAcore 2000); antibody captured, dimeric hIL-4R-hFc injected
# Method: as §1
Binder,Kd [nM],T1/2 dimeric [h]
B1,0.045,3.6
B2,0.052,2
B3,0.654,2.7
B4,0.051,6.7
B5,0.002,63
B6,0.009,25
B7,0.004,30

# Biological target: T4, dimeric hIL-4R-hFc
# Experiment: ELISA; antibody titrated against 25 pM hIL-4R-Fc, free receptor caught on hIL-4 plate
# Method: Concentration of free hIL-4R-Fc (no antibody bound) was determined using a hIL-4R-specific sandwich ELISA. […] After a one-hour incubation at room temperature, the detection plate was washed and plate-bound hIL-4R-hFc was detected using HRP conjugated goat anti-hFc polyclonal antibodies and developed using colorimetric substrates such as BD OptEIA™ (BD Biosciences Pharmingen, San Diego, Calif.). After the reaction was stopped with 1 M phosphoric or sulfuric acid, absorbances at 450 nm were recorded and the data were analyzed using GraphPad™ Prism software.
row,Binder,IC50 [nM]
1,B1,0.029
2,B2,0.018
3,B3,0.274
4,B4,0.034
5,B5,0.026
6,B6,0.027
7,B7,0.033

# Biological target: T3, hIL-4R on cells (STAT6-transfected …)
# Experiment: cell-based or functional assay
# Remark: another data set of the same source
Binder,"STAT6 Bioassay IC50 (HEK293 STAT6 luciferase, 10 pM hIL-4) [nM]","TF1/A12 Bioassay IC50 (proliferation, 20 pM hIL-4) [nM]","TF1 Bioassay IC50 (proliferation, 50 pM hIL-4) [nM]"
B1,0.32,4.7,0.44
B2,1.8,12.8,
B3,> 10,> 50,
B4,1.9,22.8,
B5,0.08,,0.16
B6,0.06,,0.13
B7,0.132,0.182,0.15

# Biological target: T4, dimeric hIL-4R-hFc
# Experiment: SPR; reduction of hIL-4 (50 nM) binding to captured hIL-4R-hFc after antibody; competitor hIL-4
# Source text: Purified hIL-4R-hFc molecules were captured by goat anti-human IgG polyclonal antibody immobilized on CM-5 to a density of 260 RU, to prepare a receptor-coated surface.
row,Binder,% Inhibition (BIAcore) [%]
1,B1,97
2,B2,85
3,B3,86
4,B4,93
5,B5,95
6,B6,95
7,B7,96
